Results: US11752086B2, “Topical formulations and methods” (MYOCEPT INC., priority 2017, dated 2023)

Experiment: isoelectric point (pI) as stated
Assay type: physicochemical
Experimental: For the second study this procedure was modified to include a chromatographic enrichment/purification step over a HiTrap SP-Sepharose cation exchange column (GE Healthcare). Both MCPT-201 and alpha cobratoxin are highly positively charged proteins with a pI of 8.2. They are routinely purified on cation exchange resigns such as SP-Sepharose. The sample buffer in the Franz cell receiving chamber was changed to 50 mM MES-NaOH, 20 mM NaCl, 0.1 mM EDTA, pH 6.0 in order to make samples directly compatible with cation exchange chromatography over SP-Sepharose.

Substance: alpha cobratoxin
- pI: 8.2
